Where a chain is given by its changes, count along the chain named. Names and notes keep the numbering of the source.
B1: SQT(MDM2)(nt).P7041.cV5 (designed binder)
chain: MIPRLTFEEYWAQLLSAAGLSEAKPATPEIQEIVDKVKPQLEEKTNETYGKLEAVQYKTQVLASTNYYIKVRAGDNKYMHLKVFNGPPGQNADRVLTGYQVDKNKDDELTGFGKPIPNPLLGLDST
notes: also called P7041 peptide in N-terminus of SQT; SQT-MDM2 construct 2
B2: SQT(MDM2)(L2).P3848.cV5 (designed binder)
chain: MIPRGLSEAKPATPEIQEIVDKVKPQLEEKTNETYGKLEAVQYKTQVLASTNYYIKVRAGDNKYMHLKVFNGPLTFEHYWAQLTSPGQNADRVLTGYQVDKNKDDELTGFGKPIPNPLLGLDST
notes: also called P3848 peptide in Loop 2 of SQT; SQT-MDM2 construct 5
B3: SQT(MDM2)(L2).P1E6W.cV5 (designed binder)
chain: B2 chain with L74E, Y79W
notes: also called P1E6W peptide in Loop 2 of SQT; SQT-MDM2 construct 6
B4: SQT(MDM2)(nt).P6W.cV5 (designed binder)
chain: MIPRLTFEHWWAQLTSGLSEAKPATPEIQEIVDKVKPQLEEKTNETYGKLEAVQYKTQVLASTNYYIKVRAGDNKYMHLKVFNGPPGQNADRVLTGYQVDKNKDDELTGFGKPIPNPLLGLDST
notes: also called P6W peptide in N-terminus of SQT; SQT-MDM2 construct 7
B5: SQT(MDM2)(nt).pDIQ.cV5 (designed binder)
chain: B4 chain with L5E, A12S, T15L
notes: also called pDIQ peptide in N-terminus of SQT; SQT-MDM2 construct 3
B6: SQT(MDM2)(nt).pMI.cV5 (designed binder)
chain: B4 chain with L5T, T6S, E8A, H9E, W10Y, A12N, Q13L, T15S, S16P
notes: also called pMI peptide in N-terminus of SQT; SQT-MDM2 construct 4

Molecular target: T1, MDM2 (UniProt Q00987 1-491, limits assumed)
T1 construct: Endogenous MDM2 of HCT116 cells
T1 sequence (Q00987 whole entry): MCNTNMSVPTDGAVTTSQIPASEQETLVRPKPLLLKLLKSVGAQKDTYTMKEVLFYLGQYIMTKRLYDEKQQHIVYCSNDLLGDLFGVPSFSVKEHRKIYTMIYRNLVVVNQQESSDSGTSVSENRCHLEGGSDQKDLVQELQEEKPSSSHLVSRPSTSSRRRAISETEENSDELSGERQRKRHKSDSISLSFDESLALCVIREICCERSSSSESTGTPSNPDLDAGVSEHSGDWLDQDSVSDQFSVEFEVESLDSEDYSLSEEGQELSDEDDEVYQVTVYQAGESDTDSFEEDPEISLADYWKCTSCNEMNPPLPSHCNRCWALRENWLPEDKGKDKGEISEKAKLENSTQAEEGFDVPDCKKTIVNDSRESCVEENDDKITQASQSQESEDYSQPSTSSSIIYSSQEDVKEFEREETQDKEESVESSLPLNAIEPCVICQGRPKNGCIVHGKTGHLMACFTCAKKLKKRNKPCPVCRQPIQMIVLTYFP
Experiment: anti-V5 immunoprecipitation from transfected HCT116 cell lysates, blot probed with anti-MDM2

Binding result, binds:
B1
B2
B3
B4
B5
B6
